Reference: PMC7975240

Target: SARS-CoV-2 spike trimer (1–1208 aa) (SARS-CoV-2) (UniProt P0DTC2)
Test: SPR

“Toll-like receptor 4 (TLR4) (from UniProt O00206 24-839)” gave a Kd of 300 nM.
